Data: PMC10874388, “Cyclic peptides discriminate BCL-2 and its clinical mutants from BCL-XL by engaging a single-residue discrepancy” (Nature Communications, 2024)
Starred links: 1 amine or outer side, 2 acyl side, 3 side chain; linkers in the order of their positions; H or OH if unused. Positions of bridges follow the written chain, without caps; N, C: chain ends. Residues, ends and D or L forms follow the SMILES beside them. Primed or numbered codes have the meaning given here. No end group written: not given here. *: point of attachment. X1 = O=C(C[*:2])NCCNC(=O)c1ccc(C2=N[C@H](C(=O)[*:1])CS2)cc1; FITC = O=C1OC2(c3ccc(O)cc3Oc3cc(O)ccc32)c2ccc(NC(=S)*)cc21; c‑ADT″ = 2-aryl-4,5-dihydrothiazole linker; ADT (ClAc-3) = not defined here; c‑ADT = not defined here

Tests used:
[1] = molecular target: T1, BCL-XL (Homo sapiens, UniProt Q07817, DEL27-81); test: SPR binding assay, BCL-XL; settings: affinity fitting, mean ± SD of three independent experiments, 25 °C
T1 construct: human BCL-XL (residues 1–210, with 27–81 and 210–233 removed); vector-borne tag of pET-22b (Ni-NTA purification implies a His tag); made in house; host or cells: E. coli BL21 (DE3)
Text: (§1) The DNA fragments encoding human BCL-XL ([…], with […] removed), BCL-w (residues 6–152), MCL-1 (residues 152–308) and BFL-1 (residues 1–151) as previously reported[18] were cloned into a pET-22b vector (Invitrogen), respectively. A chimeric human BCL-2 (including residues 1–50 and 92–207) was constructed, by removing the internal long loop (residues 51–91) and replacing its residues 35–50 with residues 33–48 of BCL-XL to solubilize the protein[14], and then it was cloned into a pET28a-Sumo vector (Invitrogen). All BCL-2 mutants (G101V, F104L, Y103D, D111A) were generated by mutagenic PCR, according to the QuikChange (Stratagene) protocol.
(§2) SPR assays were performed using a Biacore T200 instrument in running buffer consisting 10 mM PBS, 50 μM EDTA and 0.05% Tween-20 at 25 °C. Biotinylated proteins were immobilized on a CAP sensor chip (Cytiva, 28920234). […] The binding affinities were quantified by the Biacore evaluation software using 1:1 binding model. The reproducibility of the assays was confirmed by performing replicate determinations.

[2] = molecular target: MCL-1 (Homo sapiens, UniProt Q07820); test: SPR binding assay, MCL-1; settings: NB = no binding
Sequence of MCL-1 (Q07820 152-308): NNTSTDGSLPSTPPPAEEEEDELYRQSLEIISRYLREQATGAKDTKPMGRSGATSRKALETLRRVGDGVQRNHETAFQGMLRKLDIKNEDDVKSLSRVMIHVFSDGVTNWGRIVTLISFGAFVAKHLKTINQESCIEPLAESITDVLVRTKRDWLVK
Text: as §1, §2

[3] = molecular target: T2, BFL-1 (Homo sapiens, UniProt Q16548); test: SPR binding assay, BFL-1; settings: NB = no binding
T2 construct: BFL-1 (residues 1–151); vector-borne tag of pET-22b (Ni-NTA purification implies a His tag); made in house; host or cells: E. coli BL21 (DE3)
T2 sequence (Q16548 1-151): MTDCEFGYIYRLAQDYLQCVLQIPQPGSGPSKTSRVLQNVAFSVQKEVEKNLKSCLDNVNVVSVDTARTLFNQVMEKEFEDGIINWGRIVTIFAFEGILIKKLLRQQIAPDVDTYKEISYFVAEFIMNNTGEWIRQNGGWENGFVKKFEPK
Text: as §1, §2

[4] = molecular target: T3, chimeric human BCL-2 (residues 1-50 and 92-207, residues 35-50 replaced with residues 33-48 of BCL-XL) (human, UniProt P10415 1-34; Q07817-1 33-48; P10415 92-207, biotinylated for the SPR assays (sites not given)); test: fluorescence polarisation; direct binding: 20 nM FITC-labelled peptide, protein from 60 nM to 1000 nM; 1x PBS pH 7.4, room temperature, 10 min; settings: both partners purified
T3 construct: BCL-2, human, residues 1-34 (residues 35-50 are replaced, see next part); BCL-XL, human, residues 33-48, replacing residues 35-50 of BCL-2; BCL-2, human, residues 92-207 (internal loop 51-91 removed); also called BCL-2 WT; source: E. coli BL21 (DE3), purified (Ni-NTA, Superdex 75, RESOURCE Q, Superdex 200)
T3 chain (looked up): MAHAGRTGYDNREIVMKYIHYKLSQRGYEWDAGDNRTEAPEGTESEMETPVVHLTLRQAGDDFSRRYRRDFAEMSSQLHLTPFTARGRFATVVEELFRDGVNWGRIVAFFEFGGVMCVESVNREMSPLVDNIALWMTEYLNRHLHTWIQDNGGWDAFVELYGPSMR

[5] = molecular target: T4, human BCL-XL (residues 1-210, with 27-81 and 210-233 removed) (human, UniProt Q07817-1 1-210, 27-81 removed, biotinylated for the SPR assays (sites not given)); test: as above; settings: both partners purified
T4 construct: BCL-XL, human, residues 1-210 with the loop 27-81 removed; source: E. coli BL21 (DE3), purified (Ni-NTA, Superdex 75, RESOURCE Q, Superdex 200)
T4 sequence (Q07817 other isoform, or with tags, fused parts or gaps 27-81 removed | 27-81 removed): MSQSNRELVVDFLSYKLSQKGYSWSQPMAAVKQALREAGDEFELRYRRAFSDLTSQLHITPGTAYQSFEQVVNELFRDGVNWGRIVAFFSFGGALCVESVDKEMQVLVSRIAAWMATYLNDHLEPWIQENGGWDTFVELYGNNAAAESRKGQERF

[6] = molecular target: T3, chimeric human BCL-2 (residues 1-50 and …); test: fluorescence polarisation; competition: cp2-F/BCL-2 complexes (20/400 nM) or cp3-F/BCL-XL complexes (20/600 nM) treated with unlabelled peptides from 1.0 nM to 30.0 uM; 1x PBS pH 7.4, room temperature, 10 min; Ki calculated from EC50, one-site competitive model; settings: both partners purified
[7] = molecular target: T4, human BCL-XL (residues 1-210, with …); test: as above; settings: both partners purified
[8] = molecular target: T3, chimeric human BCL-2 (residues 1-50 and …); test: SPR; Biacore T200; biotinylated proteins immobilised on a CAP sensor chip, peptides flowed over at 30 uL/min in multiple cycles; 10 mM PBS, 50 uM EDTA, 0.05% Tween-20, 25 °C; 1:1 binding model; settings: both partners purified
[9] = molecular target: T4, human BCL-XL (residues 1-210, with …); test: as above; settings: both partners purified

In the case of `C[C@@H]1NC(=O)[C@@H]2CCCN2C(=O)[C@@H]2CSC(=N2)c2ccc(cc2)C(=O)NCCNC(=O)CSC[C@@H](C(=O)NCC(=O)N[C@@H](CO)C(=O)NCC(=O)N[C@@H](CO)C(=O)N[C@@H](CCCNC(=N)N)C(=O)N[C@@H](CCCCN)C(=O)N[C@@H](CCCCN)C(=O)N[C@@H](CCCNC(=N)N)C(=O)N[C@@H](CCCNC(=N)N)C(=O)N[C@@H](CCC(N)=O)C(=O)N[C@@H](CCCNC(=N)N)C(=O)N[C@@H](CCCNC(=N)N)C(=O)N[C@@H](CCCNC(=N)N)C(=O)N[C@@H](CCC(=O)O)C(=O)N[C@@H](CCC(=O)O)C(=O)N[C@@H](CCC(=O)O)C(=O)N[C@@H](CCC(=O)O)C(=O)N[C@@H](CCC(=O)O)C(=O)N[C@@H](CCC(=O)O)C(=O)N[C@@H](CCC(=O)O)C(=O)N[C@@H](CCC(=O)O)C(N)=O)NC(=O)[C@H](CCC(=O)O)NC(=O)[C@H](Cc2ccc(O)cc2)NC(=O)[C@H](CC(=O)O)NC(=O)[C@H](Cc2c[nH]c3ccccc23)NC(=O)CNC(=O)[C@H](Cc2ccc(O)cc2)NC(=O)[C@H](CCCNC(=N)N)NC1=O` [cp1-TAT-8E] (PARYGWDYECGSGSRKKRRQRRREEEEEEEE-NH2; linker N-10 via X1), the Kd [1] is reported as 1.17 ± 0.07 µM.

`CC[C@H](C)[C@@H]1NC(=O)[C@@H]2CCCN2C(=O)[C@@H]2CSC(=N2)c2ccc(cc2)C(=O)NCCNC(=O)CSC[C@@H](C(N)=O)NC(=O)[C@H](Cc2ccccc2)NC(=O)[C@H](CCC(=O)O)NC(=O)[C@H](CC(=O)O)NC(=O)[C@H](Cc2c[nH]c3ccccc23)NC(=O)[C@H](CCC(=O)O)NC(=O)[C@H](Cc2ccc(O)cc2)NC(=O)[C@H](CCCNC(=N)N)NC1=O` [cp2] (PIRYEWDEFC-NH2; linker N-10 via X1) was tested, and the Kd [2] was over 12.8 µM and the Kd [3] was over 12.8 µM.

In the case of `CC[C@H](C)[C@@H]1NC(=O)[C@@H]2CCCN2C(=O)[C@@H]2CSC(=N2)c2ccc(cc2)C(=O)NCCNC(=O)CSC[C@@H](C(N)=O)NC(=O)[C@H](CCC(=O)O)NC(=O)[C@H](C(C)C)NC(=O)[C@H](CC(=O)O)NC(=O)[C@H](Cc2c[nH]c3ccccc23)NC(=O)[C@@H]2CCCN2C(=O)[C@H](Cc2ccc(O)cc2)NC(=O)[C@H](CCCNC(=N)N)NC1=O` [cp3] (PIRYPWDVEC-NH2; linker N-10 via X1), the Kd [2] is reported as over 12.8 µM and the Kd [3] is reported as over 12.8 µM.

B1: cp3-F (peptide)
peptide: CPIRYPWDVECGK(FITC)
modifications: linker 1-11 via ADT (ClAc-3) (inferred); reading uncertain; also: modified by ClAc-3, printed as CPIRYPWDVECG{K(FITC)}
notes: also called cp3-FITC; source: synthetic peptide
B1 was tested, and the Kd [4] was 0.177 µM and the Kd [5] was 0.27 µM.

B2: cp3 (peptide)
peptide: CPIRYPWDVEC-NH2
modifications: linker 1-11 via c‑ADT″
notes: cyclic peptide from the CPXRYXWDXXC phage library screened against BCL-XL; source: synthetic peptide
B2 showed a Ki [6] of 0.152 µM and a Ki [7] of 0.333 µM.

B3: cp2-F (peptide)
peptide: CPIRYEWDEFCGK(FITC)
modifications: linker 1-11 via ADT (ClAc-3) (inferred); reading uncertain; also: modified by ClAc-3, printed as CPIRYEWDEFCG{K(FITC)}
notes: also called cp2-FITC; source: synthetic peptide
With B3 the Kd [4] was 0.0972 µM and the Kd [5] was 0.81 µM.

B4: cp2 (peptide)
peptide: CPIRYEWDEFC-NH2
modifications: linker 1-11 via c‑ADT″
notes: cyclic peptide from the CPXRYXWDXXC phage library screened against BCL-2; source: synthetic peptide
B4 was tested, and the Ki [6] was 0.0225 µM and the Ki [7] was 0.681 µM.

CPIRYEWDEFCGSGSRKKRRQRRREEEEEEEE (linker 1-11 via c‑ADT; reading uncertain, source: synthetic peptide) [cp2-TAT-8E] was tested, and the Kd [8] was 0.14 ± 0.05 µM and the Kd [9] was 0.13 ± 0.009 µM.

CPIRYPWDVECGSGSRKKRRQRRREEEEEEEE (linker 1-11 via c‑ADT; reading uncertain, source: synthetic peptide) [cp3-TAT-8E] gave a Kd [8] of 0.07 ± 0.01 µM and a Kd [9] of 0.02 ± 0.001 µM.
